# Laboratory results taken from US20210032299A1 (Eli Lilly, published 2021).
# Starred links: 1 amine or outer side, 2 acyl side, 3 side chain; linkers in the order of their positions; H or OH if unused. Non-standard residues stand in square brackets, D forms with d. Groups on a side chain read outwards from the residue. No end group written: not given here. *: point of attachment. C20 diacid = O=C(O)CCCCCCCCCCCCCCCCCCC(=O)*; C18 diacid = O=C(O)CCCCCCCCCCCCCCCCC(=O)*; γGlu = O=C(O)[C@H](CCC(=O)[*:2])N[*:1]; 4Pal = N[C@@H](Cc1ccncc1)C(=O)O; αMeL = CC(C)C[C@](C)(N)C(=O)O; AEEA = NCCOCCOCC(=O)O; Aib = CC(C)(N)C(=O)O
# T1: human glucose-dependent insulinotropic polypeptide (GIP) receptor (human, UniProt P48546 22-466)
# T1 construct: whole, on cells; Assayed as crude membranes of stably transfected CHO cells; also called hGIPR; human GIP receptor
# T1 sequence (looked up): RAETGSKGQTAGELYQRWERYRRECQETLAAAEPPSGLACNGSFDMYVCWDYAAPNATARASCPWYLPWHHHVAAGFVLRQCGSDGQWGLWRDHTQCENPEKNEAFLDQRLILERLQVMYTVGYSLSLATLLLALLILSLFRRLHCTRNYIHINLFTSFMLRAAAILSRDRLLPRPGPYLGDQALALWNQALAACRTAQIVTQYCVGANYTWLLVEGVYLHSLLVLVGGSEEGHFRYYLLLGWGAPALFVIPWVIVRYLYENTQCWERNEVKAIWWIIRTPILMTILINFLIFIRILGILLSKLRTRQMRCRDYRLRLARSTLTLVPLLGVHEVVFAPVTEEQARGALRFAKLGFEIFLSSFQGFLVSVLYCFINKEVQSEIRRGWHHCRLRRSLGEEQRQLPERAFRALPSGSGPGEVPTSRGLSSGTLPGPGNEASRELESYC
# B1: Example 45 (peptide)
# peptide: Y[Aib]EGTFISDYSI[αMeL]LDKK([AEEA-AEEA-γGlu-C20 diacid])HQ[Aib]DFVE[4Pal]LLETGPSSGAPPPS-NH2
# modifications: N-terminus assumed
# SMILES: CC[C@H](C)[C@H](NC(=O)[C@H](Cc1ccccc1)NC(=O)[C@@H](NC(=O)CNC(=O)[C@H](CCC(=O)O)NC(=O)C(C)(C)NC(=O)[C@@H](N)Cc1ccc(O)cc1)[C@@H](C)O)C(=O)N[C@@H](CO)C(=O)N[C@@H](CC(=O)O)C(=O)N[C@@H](Cc1ccc(O)cc1)C(=O)N[C@@H](CO)C(=O)N[C@H](C(=O)N[C@@](C)(CC(C)C)C(=O)N[C@@H](CC(C)C)C(=O)N[C@@H](CC(=O)O)C(=O)N[C@@H](CCCCN)C(=O)N[C@@H](CCCCNC(=O)COCCOCCNC(=O)COCCOCCNC(=O)CC[C@H](NC(=O)CCCCCCCCCCCCCCCCCCC(=O)O)C(=O)O)C(=O)N[C@@H](Cc1c[nH]cn1)C(=O)N[C@@H](CCC(N)=O)C(=O)NC(C)(C)C(=O)N[C@@H](CC(=O)O)C(=O)N[C@@H](Cc1ccccc1)C(=O)N[C@H](C(=O)N[C@@H](CCC(=O)O)C(=O)N[C@@H](Cc1ccncc1)C(=O)N[C@@H](CC(C)C)C(=O)N[C@@H](CC(C)C)C(=O)N[C@@H](CCC(=O)O)C(=O)N[C@H](C(=O)NCC(=O)N1CCC[C@H]1C(=O)N[C@@H](CO)C(=O)N[C@@H](CO)C(=O)NCC(=O)N[C@@H](C)C(=O)N1CCC[C@H]1C(=O)N1CCC[C@H]1C(=O)N1CCC[C@H]1C(=O)N[C@@H](CO)C(N)=O)[C@@H](C)O)C(C)C)[C@@H](C)CC
# B2: Example 22 (peptide)
# peptide: Y[Aib]EGTFISDYSILLDKK([AEEA-AEEA-γGlu-C18 diacid])HQ[Aib]DFVE[4Pal]LLAGGPSSGAPPPS-NH2
# modifications: N-terminus assumed
# SMILES: CC[C@H](C)[C@H](NC(=O)[C@H](CO)NC(=O)[C@H](Cc1ccc(O)cc1)NC(=O)[C@H](CC(=O)O)NC(=O)[C@H](CO)NC(=O)[C@@H](NC(=O)[C@H](Cc1ccccc1)NC(=O)[C@@H](NC(=O)CNC(=O)[C@H](CCC(=O)O)NC(=O)C(C)(C)NC(=O)[C@@H](N)Cc1ccc(O)cc1)[C@@H](C)O)[C@@H](C)CC)C(=O)N[C@@H](CC(C)C)C(=O)N[C@@H](CC(C)C)C(=O)N[C@@H](CC(=O)O)C(=O)N[C@@H](CCCCN)C(=O)N[C@@H](CCCCNC(=O)COCCOCCNC(=O)COCCOCCNC(=O)CC[C@H](NC(=O)CCCCCCCCCCCCCCCCC(=O)O)C(=O)O)C(=O)N[C@@H](Cc1c[nH]cn1)C(=O)N[C@@H](CCC(N)=O)C(=O)NC(C)(C)C(=O)N[C@@H](CC(=O)O)C(=O)N[C@@H](Cc1ccccc1)C(=O)N[C@H](C(=O)N[C@@H](CCC(=O)O)C(=O)N[C@@H](Cc1ccncc1)C(=O)N[C@@H](CC(C)C)C(=O)N[C@@H](CC(C)C)C(=O)N[C@@H](C)C(=O)NCC(=O)NCC(=O)N1CCC[C@H]1C(=O)N[C@@H](CO)C(=O)N[C@@H](CO)C(=O)NCC(=O)N[C@@H](C)C(=O)N1CCC[C@H]1C(=O)N1CCC[C@H]1C(=O)N1CCC[C@H]1C(=O)N[C@@H](CO)C(N)=O)C(C)C
# B3: Example 21 (peptide)
# peptide: Y[Aib]EGTFISDYSIALDKK([AEEA-AEEA-γGlu-C18 diacid])HQ[Aib]DFVE[4Pal]LLAGGPSSGAPPPS-NH2
# modifications: N-terminus assumed
# SMILES: CC[C@H](C)[C@H](NC(=O)[C@H](CO)NC(=O)[C@H](Cc1ccc(O)cc1)NC(=O)[C@H](CC(=O)O)NC(=O)[C@H](CO)NC(=O)[C@@H](NC(=O)[C@H](Cc1ccccc1)NC(=O)[C@@H](NC(=O)CNC(=O)[C@H](CCC(=O)O)NC(=O)C(C)(C)NC(=O)[C@@H](N)Cc1ccc(O)cc1)[C@@H](C)O)[C@@H](C)CC)C(=O)N[C@@H](C)C(=O)N[C@@H](CC(C)C)C(=O)N[C@@H](CC(=O)O)C(=O)N[C@@H](CCCCN)C(=O)N[C@@H](CCCCNC(=O)COCCOCCNC(=O)COCCOCCNC(=O)CC[C@H](NC(=O)CCCCCCCCCCCCCCCCC(=O)O)C(=O)O)C(=O)N[C@@H](Cc1c[nH]cn1)C(=O)N[C@@H](CCC(N)=O)C(=O)NC(C)(C)C(=O)N[C@@H](CC(=O)O)C(=O)N[C@@H](Cc1ccccc1)C(=O)N[C@H](C(=O)N[C@@H](CCC(=O)O)C(=O)N[C@@H](Cc1ccncc1)C(=O)N[C@@H](CC(C)C)C(=O)N[C@@H](CC(C)C)C(=O)N[C@@H](C)C(=O)NCC(=O)NCC(=O)N1CCC[C@H]1C(=O)N[C@@H](CO)C(=O)N[C@@H](CO)C(=O)NCC(=O)N[C@@H](C)C(=O)N1CCC[C@H]1C(=O)N1CCC[C@H]1C(=O)N1CCC[C@H]1C(=O)N[C@@H](CO)C(N)=O)C(C)C
# B4: Example 35 (peptide)
# peptide: Y[Aib]EGT[αMeL]ISDYSIALDKK([AEEA-AEEA-γGlu-C20 diacid])HQ[Aib]EFVNYLLATGPSSGAPPPS-NH2
# modifications: N-terminus assumed
# SMILES: CC[C@H](C)[C@H](NC(=O)[C@H](CO)NC(=O)[C@H](Cc1ccc(O)cc1)NC(=O)[C@H](CC(=O)O)NC(=O)[C@H](CO)NC(=O)[C@@H](NC(=O)[C@](C)(CC(C)C)NC(=O)[C@@H](NC(=O)CNC(=O)[C@H](CCC(=O)O)NC(=O)C(C)(C)NC(=O)[C@@H](N)Cc1ccc(O)cc1)[C@@H](C)O)[C@@H](C)CC)C(=O)N[C@@H](C)C(=O)N[C@@H](CC(C)C)C(=O)N[C@@H](CC(=O)O)C(=O)N[C@@H](CCCCN)C(=O)N[C@@H](CCCCNC(=O)COCCOCCNC(=O)COCCOCCNC(=O)CC[C@H](NC(=O)CCCCCCCCCCCCCCCCCCC(=O)O)C(=O)O)C(=O)N[C@@H](Cc1c[nH]cn1)C(=O)N[C@@H](CCC(N)=O)C(=O)NC(C)(C)C(=O)N[C@@H](CCC(=O)O)C(=O)N[C@@H](Cc1ccccc1)C(=O)N[C@H](C(=O)N[C@@H](CC(N)=O)C(=O)N[C@@H](Cc1ccc(O)cc1)C(=O)N[C@@H](CC(C)C)C(=O)N[C@@H](CC(C)C)C(=O)N[C@@H](C)C(=O)N[C@H](C(=O)NCC(=O)N1CCC[C@H]1C(=O)N[C@@H](CO)C(=O)N[C@@H](CO)C(=O)NCC(=O)N[C@@H](C)C(=O)N1CCC[C@H]1C(=O)N1CCC[C@H]1C(=O)N1CCC[C@H]1C(=O)N[C@@H](CO)C(N)=O)[C@@H](C)O)C(C)C
# B5: Example 55 (peptide)
# peptide: YXEGTXISDYSIXLDKKHQXDFVEXLLAGGPSSGAPPPS
# modifications: Aib2; Iva6; αMeL13; K17((2-[2-(2-Amino-ethoxy)-ethoxy]-acetyl)2-(γ-Glu)-CO-(CH2)18-CO2H); Aib20; 4-Pal25; C-terminal amide
# B6: Example 49 (peptide)
# peptide: Y[Aib]EGTFISDYSI[αMeL]LDKK([AEEA-AEEA-γGlu-C18 diacid])HQ[Aib]DFVE[4Pal]LLAGGPSSGAPPPS-NH2
# modifications: N-terminus assumed
# SMILES: CC[C@H](C)[C@H](NC(=O)[C@H](Cc1ccccc1)NC(=O)[C@@H](NC(=O)CNC(=O)[C@H](CCC(=O)O)NC(=O)C(C)(C)NC(=O)[C@@H](N)Cc1ccc(O)cc1)[C@@H](C)O)C(=O)N[C@@H](CO)C(=O)N[C@@H](CC(=O)O)C(=O)N[C@@H](Cc1ccc(O)cc1)C(=O)N[C@@H](CO)C(=O)N[C@H](C(=O)N[C@@](C)(CC(C)C)C(=O)N[C@@H](CC(C)C)C(=O)N[C@@H](CC(=O)O)C(=O)N[C@@H](CCCCN)C(=O)N[C@@H](CCCCNC(=O)COCCOCCNC(=O)COCCOCCNC(=O)CC[C@H](NC(=O)CCCCCCCCCCCCCCCCC(=O)O)C(=O)O)C(=O)N[C@@H](Cc1c[nH]cn1)C(=O)N[C@@H](CCC(N)=O)C(=O)NC(C)(C)C(=O)N[C@@H](CC(=O)O)C(=O)N[C@@H](Cc1ccccc1)C(=O)N[C@H](C(=O)N[C@@H](CCC(=O)O)C(=O)N[C@@H](Cc1ccncc1)C(=O)N[C@@H](CC(C)C)C(=O)N[C@@H](CC(C)C)C(=O)N[C@@H](C)C(=O)NCC(=O)NCC(=O)N1CCC[C@H]1C(=O)N[C@@H](CO)C(=O)N[C@@H](CO)C(=O)NCC(=O)N[C@@H](C)C(=O)N1CCC[C@H]1C(=O)N1CCC[C@H]1C(=O)N1CCC[C@H]1C(=O)N[C@@H](CO)C(N)=O)C(C)C)[C@@H](C)CC
# Experiments:
# [1] = biological target: T1, human glucose-dependent insulinotropic …; experiment: SPA, displacement of [125I]-GIP from hGIPR membranes, 0.1% bacitracin
# human glucagon receptor = biological target: T2, human glucagon receptor (human, UniProt P47871 26-477); experiment: SPA, displacement of [125I]-Gcg from hGcgR membranes, 0.1% bacitracin
# T2 construct: whole, on cells; Assayed as crude membranes of stably transfected HEK293 cells; also called hGcgR; GcgR
# Description: The binding buffer contains 25 mM 4-(2-hydroxyethyl)-1-piperazineethanesulfonic acid (HEPES), pH 7.4, 2.5 mM CaCl₂), 1 mM MgCl₂, 0.1% (w/v) bacitracin (Research Products), 0.003% (w/v) Polyoxyethylenesorbitan monolaurate (TWEEN®-20), and Roche Complete™ Protease Inhibitors without EDTA. […] Plates are sealed and mixed on a plate shaker (setting 6) for 1 minute and read with a PerkinElmer Trilux MicroBeta® scintillation counter after 12 hours of incubation/settling time at room temperature.
# (§1) Data are analyzed using four-parameter (curve maximum, curve minimum, […], Hill slope) nonlinear regression routines (Genedata Screener, version 12.0.4, Genedata AG, Basal, Switzerland). […] Values for Kᵢ are reported as the geometric mean, with error expressed as the standard error of the mean (SEM) and n is equal to the number of independent replicates (determined in assays performed on different days).
# human GLP-1 receptor = biological target: T3, human GLP-1 receptor (human, UniProt P43220 24-463); experiment: SPA, displacement of [125I]-GLP-1 from hGLP-1R membranes, 0.1% bacitracin
# T3 construct: whole, on cells; Assayed as crude membranes of stably transfected HEK293 cells; also called hGLP1R; hGLP-1R
# Description: The binding buffer contains 25 mM HEPES, pH 7.4, 2.5 mM CaCl₂, 1 mM MgCl₂, 0.1% (w/v) bacitracin, 0.003% (w/v) TWEEN®-20, and Roche Complete™ Protease Inhibitors without EDTA.
# as §1, with “days). Geometric Means are calculated as follows: […]” for “days).”
# T2 sequence (P47871 26-477): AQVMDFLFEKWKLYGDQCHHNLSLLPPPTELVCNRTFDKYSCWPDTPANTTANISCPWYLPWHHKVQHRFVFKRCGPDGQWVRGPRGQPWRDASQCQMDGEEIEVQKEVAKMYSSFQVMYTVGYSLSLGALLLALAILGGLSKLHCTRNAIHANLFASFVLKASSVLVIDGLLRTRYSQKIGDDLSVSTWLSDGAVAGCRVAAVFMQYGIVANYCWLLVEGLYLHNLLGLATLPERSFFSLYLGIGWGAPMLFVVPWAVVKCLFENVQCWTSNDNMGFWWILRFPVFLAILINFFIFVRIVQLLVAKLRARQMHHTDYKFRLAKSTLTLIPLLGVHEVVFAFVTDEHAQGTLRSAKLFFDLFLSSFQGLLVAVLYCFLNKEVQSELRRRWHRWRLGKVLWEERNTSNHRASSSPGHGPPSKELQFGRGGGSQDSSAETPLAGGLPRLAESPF
Binder,Ki [1] [nM],Ki (human glucagon receptor) [nM],Ki (human GLP-1 receptor) [nM]
B1,0.0663,660,–
B2,0.219,–,388
B3,1.46,–,801
B4,0.0351,–,177
B5,0.0331,–,262
B6,0.0512,–,596
